# From patent US20230365675A1 (published 2023)
# B1: sdCD33_11 (VHH)
# VHH: AVQLVESGGGLVQAGGSLRLSCAASGDTFANYAMGWFRQAPGKEREFVAAISWSDSSTHYADSVKGRFTIPRDNAKNAVYLQMDQLKPEDMAVYYCYAYIRGVGEVRYVDYWGQGTQVTVSS
# notes: sdAb from a naive llama phage library; also called 430; sdAb430
# B2: sdCD33_5 (VHH)
# VHH: QVQLQESGGGLVQPGGSLRLSCAASGSVFSIYAMAWYRQAPGKQRELVAVITSGGATNYADSVKGRFTISRDIAKKTLYLQMNTLKPEDTAVYYCYAHLLIQPFDRFYDYWGQGTQVTVSS
# notes: sdAb from a naive llama phage library; also called 413; sdAb413
# B3: sdCD33_6 (VHH)
# VHH: EVQLVESGGGLVQPRGSLRLSCVVSGSMSSIYSMSWYRQPPGKQRELVAHITTTGTTNYIDSVKGRFTISIDNDINVIYLQMNTLKPEDTAVYYCNAGLKAGPGPRLDYWGLGTQVTVSS
# notes: sdAb from a naive llama phage library; also called 416; sdAb416
# What was measured:
# [1] = target: CD33-GFP fusion protein, wild type (WT), on 293FT cells (UniProt P20138); experiment: FACS, WT CD33-GFP on 293FT cells; also: unit not given here
# Chain of CD33-GFP fusion protein, wild type (WT), on 293FT cells (P20138 18-364): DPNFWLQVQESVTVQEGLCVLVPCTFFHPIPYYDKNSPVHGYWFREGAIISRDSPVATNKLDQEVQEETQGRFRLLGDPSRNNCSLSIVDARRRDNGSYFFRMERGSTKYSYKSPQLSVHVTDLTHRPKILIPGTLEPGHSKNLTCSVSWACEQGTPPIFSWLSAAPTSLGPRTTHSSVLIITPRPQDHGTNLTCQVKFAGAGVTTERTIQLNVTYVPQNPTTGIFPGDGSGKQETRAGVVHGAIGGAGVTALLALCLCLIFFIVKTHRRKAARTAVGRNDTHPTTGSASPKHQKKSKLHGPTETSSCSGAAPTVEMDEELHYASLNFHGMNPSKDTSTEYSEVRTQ
# [2] = target: Mutant CD33-GFP JS23 (L23N) on 293FT cells (UniProt P20138); experiment: FACS, mutant CD33-GFP on 293FT cells
# Chain of Mutant CD33-GFP JS23 (L23N) on 293FT cells (P20138 18-364 L23N): as the sequence (P20138 18-364) above, with L6N counted along it
# [3] = target: Mutant CD33-GFP JS24 (Q24E) on 293FT cells (UniProt P20138); experiment: FACS, mutant CD33-GFP on 293FT cells
# Chain of Mutant CD33-GFP JS24 (Q24E) on 293FT cells (P20138 18-364 Q24E): as the sequence (P20138 18-364) above, with Q7E counted along it
# [4] = target: Mutant CD33-GFP JS25 (V25M) on 293FT cells (UniProt P20138); experiment: FACS, mutant CD33-GFP on 293FT cells
# Chain of Mutant CD33-GFP JS25 (V25M) on 293FT cells (P20138 18-364 V25M): as the sequence (P20138 18-364) above, with V8M counted along it
# [5] = target: Mutant CD33-GFP JS28 (S28L) on 293FT cells (UniProt P20138); experiment: FACS, mutant CD33-GFP on 293FT cells
# Chain of Mutant CD33-GFP JS28 (S28L) on 293FT cells (P20138 18-364 S28L): as the sequence (P20138 18-364) above, with S11L counted along it
# [6] = target: Mutant CD33-GFP M10 (Y127A) on 293FT cells (UniProt P20138); experiment: FACS, mutant CD33-GFP on 293FT cells
# Chain of Mutant CD33-GFP M10 (Y127A) on 293FT cells (P20138 18-364 Y127A): as the sequence (P20138 18-364) above, with Y110A counted along it
# [7] = target: Mutant CD33-GFP M11 (L78T) on 293FT cells (UniProt P20138); experiment: FACS, mutant CD33-GFP on 293FT cells
# Chain of Mutant CD33-GFP M11 (L78T) on 293FT cells (P20138 18-364 L78T): as the sequence (P20138 18-364) above, with L61T counted along it
# [8] = target: Mutant CD33-GFP M12 (G88S) on 293FT cells (UniProt P20138); experiment: FACS, mutant CD33-GFP on 293FT cells
# Chain of Mutant CD33-GFP M12 (G88S) on 293FT cells (P20138 18-364 G88S): as the sequence (P20138 18-364) above, with G71S counted along it
# [9] = target: Mutant CD33-GFP M13 (R91E) on 293FT cells (UniProt P20138); experiment: FACS, mutant CD33-GFP on 293FT cells
# Chain of Mutant CD33-GFP M13 (R91E) on 293FT cells (P20138 18-364 R91E): as the sequence (P20138 18-364) above, with R74E counted along it
# [10] = target: Mutant CD33-GFP M14 (E170R) on 293FT cells (UniProt P20138); experiment: FACS, mutant CD33-GFP on 293FT cells
# Chain of Mutant CD33-GFP M14 (E170R) on 293FT cells (P20138 18-364 E170R): as the sequence (P20138 18-364) above, with E153R counted along it
# [11] = target: Mutant CD33-GFP M15 (Q171A) on 293FT cells (UniProt P20138); experiment: FACS, mutant CD33-GFP on 293FT cells
# Chain of Mutant CD33-GFP M15 (Q171A) on 293FT cells (P20138 18-364 Q171A): as the sequence (P20138 18-364) above, with Q154A counted along it
# [12] = target: Mutant CD33-GFP M16 (4889AII) on 293FT cells (UniProt P20138); experiment: FACS, mutant CD33-GFP on 293FT cells
# [13] = target: Mutant CD33-GFP M17 (F21Y) on 293FT cells (UniProt P20138); experiment: FACS, mutant CD33-GFP on 293FT cells
# Chain of Mutant CD33-GFP M17 (F21Y) on 293FT cells (P20138 18-364 F21Y): as the sequence (P20138 18-364) above, with F4Y counted along it
# [14] = target: Mutant CD33-GFP M18 (353AAL) on 293FT cells (UniProt P20138); experiment: FACS, mutant CD33-GFP on 293FT cells
# [15] = target: Mutant CD33-GFP M19 (348ATAI) on 293FT cells (UniProt P20138); experiment: FACS, mutant CD33-GFP on 293FT cells
# [16] = target: Mutant CD33-GFP M4 (R122D) on 293FT cells (UniProt P20138); experiment: FACS, mutant CD33-GFP on 293FT cells
# Chain of Mutant CD33-GFP M4 (R122D) on 293FT cells (P20138 18-364 R122D): as the sequence (P20138 18-364) above, with R105D counted along it
# [17] = target: Mutant CD33-GFP M5 (AEAD), quadruple mutant, on 293FT cells (UniProt P20138); experiment: FACS, mutant CD33-GFP on 293FT cells
# Chain of Mutant CD33-GFP M5 (AEAD), quadruple mutant, on 293FT cells (P20138 other isoform, or with tags, fused parts or gaps mutant): as the sequence (P20138 18-364) above, with W5A, H28E, N82A, R105D counted along it
# [18] = target: Mutant CD33-GFP M9 (Y49, 50A) on 293FT cells (UniProt P20138); experiment: FACS, mutant CD33-GFP on 293FT cells
# Chain of Mutant CD33-GFP M9 (Y49, 50A) on 293FT cells (P20138 other isoform, or with tags, fused parts or gaps mutant): as the sequence (P20138 18-364) above, with Y32A, Y33A counted along it
# [19] = target: Mutant CD33-GFP N20D on 293FT cells (UniProt P20138); experiment: FACS, mutant CD33-GFP on 293FT cells
# Chain of Mutant CD33-GFP N20D on 293FT cells (P20138 18-364 N20D): as the sequence (P20138 18-364) above, with N3D counted along it
# [20] = target: T1, Mutant CD33-GFP M1 (W22A) on 293FT cells (UniProt P20138 18-364); experiment: FACS, mutant CD33-GFP on 293FT cells
# T1 construct: whole, on cells; not shown: GFP fused to CD33
# T1 sequence (P20138 18-364 W22A): as the sequence (P20138 18-364) above, with W5A counted along it
# [21] = target: T2, Mutant CD33-GFP M2 (H45E) on 293FT cells (UniProt P20138 18-364); experiment: FACS, mutant CD33-GFP on 293FT cells
# T2 construct: whole, on cells; not shown: GFP fused to CD33
# T2 sequence (P20138 18-364 H45E): as the sequence (P20138 18-364) above, with H28E counted along it
# [22] = target: T3, Mutant CD33-GFP M3 (N99A) on 293FT cells (UniProt P20138 18-364); experiment: FACS, mutant CD33-GFP on 293FT cells
# T3 construct: whole, on cells; not shown: GFP fused to CD33
# T3 sequence (P20138 18-364 N99A): as the sequence (P20138 18-364) above, with N82A counted along it
# [23] = target: T4, Mutant CD33-GFP M6 (F43N) on 293FT cells (UniProt P20138 18-364); experiment: FACS, mutant CD33-GFP on 293FT cells
# T4 construct: whole, on cells; not shown: GFP fused to CD33
# T4 sequence (P20138 18-364 F43N): as the sequence (P20138 18-364) above, with F26N counted along it
# [24] = target: T5, Mutant CD33-GFP M7 (R98D) on 293FT cells (UniProt P20138 18-364); experiment: FACS, mutant CD33-GFP on 293FT cells
# T5 construct: whole, on cells; not shown: GFP fused to CD33
# T5 sequence (P20138 18-364 R98D): as the sequence (P20138 18-364) above, with R81D counted along it
# [25] = target: T6, Mutant CD33-GFP M8 (K52A) on 293FT cells (UniProt P20138 18-364); experiment: FACS, mutant CD33-GFP on 293FT cells
# T6 construct: whole, on cells; not shown: GFP fused to CD33
# T6 sequence (P20138 18-364 K52A): as the sequence (P20138 18-364) above, with K35A counted along it
# [26] = target: Biotinylated CD33 protein (UniProt P20138); experiment: Octet competition on biotinylated CD33; competitor 348
# Chain of Biotinylated CD33 protein (P20138 18-259 limits assumed): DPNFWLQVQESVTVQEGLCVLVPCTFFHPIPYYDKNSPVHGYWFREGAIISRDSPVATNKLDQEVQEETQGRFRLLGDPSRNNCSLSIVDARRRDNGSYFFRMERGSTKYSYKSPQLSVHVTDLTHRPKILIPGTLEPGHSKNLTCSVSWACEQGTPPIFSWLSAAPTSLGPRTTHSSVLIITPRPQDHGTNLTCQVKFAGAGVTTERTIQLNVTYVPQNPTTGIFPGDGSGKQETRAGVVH
# [27] = target: Biotinylated CD33 protein (UniProt P20138); experiment: Octet competition on biotinylated CD33; competitor 353
# [28] = target: Biotinylated CD33 protein (UniProt P20138); experiment: Octet competition on biotinylated CD33; competitor 389
# [29] = target: Biotinylated CD33 protein (UniProt P20138); experiment: Octet competition on biotinylated CD33; competitor 413
# [30] = target: Biotinylated CD33 protein (UniProt P20138); experiment: Octet competition on biotinylated CD33; competitor 416
# [31] = target: Biotinylated CD33 protein (UniProt P20138); experiment: Octet competition on biotinylated CD33; competitor 420
# [32] = target: Biotinylated CD33 protein (UniProt P20138); experiment: Octet competition on biotinylated CD33; competitor 424
# [33] = target: Biotinylated CD33 protein (UniProt P20138); experiment: Octet competition on biotinylated CD33; competitor 426
# [34] = target: Biotinylated CD33 protein (UniProt P20138); experiment: Octet competition on biotinylated CD33; competitor 429
# [35] = target: Biotinylated CD33 protein (UniProt P20138); experiment: Octet competition on biotinylated CD33; competitor h195
# CD33 on MOLM-13 cells = target: T7, CD33 on MOLM-13 cells (human, UniProt P20138 18-364); experiment: FACS, MOLM-13 cells expressing CD33 against MOLM-13 CD33 knockout
# T7 construct: whole, on cells; also called MOLM-13 cell line expressing CD33; wild-type MOLM-13 cells (CD33+)
# T7 sequence (P20138 18-364): as the sequence (P20138 18-364) above
# Excerpt: A naïve llama phage library was panned and screened to identify single domain antibodies that specifically recognize CD33. A MOLM-13 cell line expressing CD33 was used as a CD33-positive cell line, and a MOLM-13 cell line harboring a knockout of CD33 was used as a CD-33 negative cell line. A purified anti-human CD33 antibody was used as a positive control. Specific binding activity of identified binders was confirmed by FACS. The heavy chain variable region sequences of the identified binders are included herein.
# [36] = target: Biotinylated CD33 protein (UniProt P20138); experiment: Octet competition on biotinylated CD33; competitor 430
Binder,FACS binding data [1],FACS binding data [2],FACS binding data [3],FACS binding data [4],FACS binding data [5],FACS binding data [6],FACS binding data [7],FACS binding data [8],FACS binding data [9],FACS binding data [10],FACS binding data [11],FACS binding data [12],FACS binding data [13],FACS binding data [14],FACS binding data [15],FACS binding data [16],FACS binding data [17],FACS binding data [18],FACS binding data [19],FACS binding data [20],further results
B1,97.6,99.2,99.6,99.7,99.7,94.2,73.8,98.5,98.7,97.4,97.2,97.4,96.1,99.4,99.8,98.4,0.79,1.01,97.5,99.4,FACS binding data [21]: 99.3; FACS binding data [22]: 99.3; FACS binding data [23]: 98.8; FACS binding data [24]: 98.5; FACS binding data [25]: 97.1; Octet signal [26]: -0.212; Octet signal [27]: -0.112; Octet signal [28]: 0.0436; Octet signal [29]: -0.108; Octet signal [30]: -0.268; Octet signal [31]: -0.169; Octet signal [32]: -0.377; Octet signal [33]: -0.227; Octet signal [34]: -0.29; Octet signal [35]: 0.136; binding result (CD33 on MOLM-13 cells): binds
B2,98,98.4,97,99.5,99.4,90.2,58.5,98.6,98.5,98.2,98.6,98.3,84.6,49.2,99.3,76,0.81,0.79,56.7,76.4,FACS binding data [21]: 5.93; FACS binding data [22]: 96.8; FACS binding data [23]: 97.5; FACS binding data [24]: 97; FACS binding data [25]: 91.4; Octet signal [26]: -0.024; Octet signal [27]: 0.248; Octet signal [28]: 0.483; Octet signal [30]: -0.0586; Octet signal [31]: 0.15; Octet signal [32]: -0.0796; Octet signal [33]: 0.0667; Octet signal [34]: -0.0887; Octet signal [36]: 0.63; Octet signal [35]: 0.648; binding result (CD33 on MOLM-13 cells): binds
B3,98.8,94.3,98.6,99,99.6,98.9,45.1,99.1,99.2,99,98.9,80.8,99.1,99.8,99.6,99.3,0.24,99.1,99,1.25,FACS binding data [21]: 96.6; FACS binding data [22]: 98.7; FACS binding data [23]: 97.9; FACS binding data [24]: 98.6; FACS binding data [25]: 98.9; Octet signal [26]: 0.229; Octet signal [27]: 0.438; Octet signal [28]: 0.456; Octet signal [29]: 0.376; Octet signal [31]: 0.34; Octet signal [32]: 0.22; Octet signal [33]: 0.514; Octet signal [34]: 0.261; Octet signal [36]: 0.697; Octet signal [35]: 0.565; binding result (CD33 on MOLM-13 cells): binds
